Source: publication PMC4254048

Molecular target: UB (ubiquitin)
Assay: SEC-MALS
Settings: reference: unphosphorylated PARKIN; sites S65

- other: mass increase on p-UB addition: same; reference ~7
Substance: PARKIN (from UniProt O60260) p-PARKIN
